Reference: US20020001587A1

Biological target: human HER2 (ErbB2) (human) (UniProt P04626)
Test: cell-based or functional assay

maximum inhibition of cell proliferation in SK-BR-3 cells: 66%
Substance: murine monoclonal antibody 4D5 (ATCC CRL 10463)
